This is an account of results in paper PMC6986764, “RNA binding protein FXR1-miR301a-3p axis contributes to p21WAF1 degradation in oral cancer”.

This data set concerns the target FXR1 (rFXR1) (human, UniProt P51114 1-621). Put plainly: EMSA; 1 ug E. coli tRNA, 1.5 mM EDTA; EMSA: 0.5 pmol 32P-miRNA in 20 ul, 20 mM Na-HEPES pH 7.0, 150 mM NaCl, 0.75 mM DTT, 1.5 mM EDTA, 10% glycerol, 1 ug E. coli tRNA, 37 C 30 min; 12% native PAGE. The conditions noted are these: protein: recombinant, His-tag (pET28a), thrombin-cleaved in final dialysis, single strand.

Chain of FXR1 (rFXR1) (P51114 whole entry): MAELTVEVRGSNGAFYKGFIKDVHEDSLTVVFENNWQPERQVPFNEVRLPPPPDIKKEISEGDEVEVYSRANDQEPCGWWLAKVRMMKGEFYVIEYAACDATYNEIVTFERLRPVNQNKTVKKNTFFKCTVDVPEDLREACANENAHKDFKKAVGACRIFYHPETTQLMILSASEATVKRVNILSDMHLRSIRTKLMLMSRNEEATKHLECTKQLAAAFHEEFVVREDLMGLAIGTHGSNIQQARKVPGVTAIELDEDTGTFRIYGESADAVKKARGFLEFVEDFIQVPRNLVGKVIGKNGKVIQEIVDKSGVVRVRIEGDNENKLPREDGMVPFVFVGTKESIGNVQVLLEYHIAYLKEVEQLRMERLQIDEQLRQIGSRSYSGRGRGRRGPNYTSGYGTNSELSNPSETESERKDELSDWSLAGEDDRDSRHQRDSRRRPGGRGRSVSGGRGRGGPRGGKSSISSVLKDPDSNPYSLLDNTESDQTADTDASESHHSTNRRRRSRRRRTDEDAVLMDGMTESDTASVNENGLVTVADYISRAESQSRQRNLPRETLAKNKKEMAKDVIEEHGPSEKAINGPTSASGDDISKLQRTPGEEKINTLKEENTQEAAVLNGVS

Take CAGUGCAAUAGUAUUGUCAAAGC (ssRNA) [miR301a-3p]: the binding result (label: 5'-32P) is given as “binds”. On to UUCCCUUUGUCAUCCUAUGCCU (ssRNA) [miR204-5p], for which the binding result (label: 32P) is on record as “no binding”.
